Measurements reported in patent US20050202532A1, “Helical synthetic peptides that stimulate cellular cholesterol efflux” (The Regents of the University of California, published 2005).

How the values were obtained:
[1] = target: ATP-binding cassette transporter A1 (ABCA1), endogenous in J774 macrophages (Homo sapiens (Human)) (UniProt O95477)
[2] = target: ATP-binding cassette transporter A1 (ABCA1), endogenous in J774 macrophages (Homo sapiens (Human), UniProt O95477); experiment: cell-based or functional assay

Row | concentration giving maximal cholesterol efflux [1] | potency in mediating ABCA1-dependent cholesterol efflux against the 1/9 chimera [2] | Molecule
1 | 10 µg/mL |  | full-length recombinant apoA-I (His-tagged) (from UniProt P02647) (ligand)
2 |  | 2 fold (against the 1/9 chimera) | Ac-PALEDLRQGLLPVLESFKVSFLSALEEYTKKLN-NH2 [9/10 peptide, aa 209-241 of apoA-I (33-mer)]
